Consider five molecules from patent US20220153851A1 (Five Prime, published 2022).

Assay [1] addresses T1, cynoCSF1R ECD-Fc (cynomolgus).
T1 construct: also called cynomolgus CSF1R ECD
Put plainly: competition ELISA, blocking of human CSF1 binding to cynoCSF1R ECD-Fc. On the procedure: The humanized antibodies, along with the parental chimeric antibodies (cAbs), were tested for their ability to block human CSF1 binding to human and cynomolgus CSF1R ECD, as follows.
Recombinant Human CSF1 (M-CSF; R&D Systems) was biotinylated using an NH₂-Biotin Labeling Kit (Dojindo Molecular Technologies). One hundred μl of 1 μg/ml biotinylated CSF1 in PBST/0.1% BSA was added to the wells of Reacti-Bind Streptavidin coated plates (Pierce) pre-blocked with SuperBlock blocking buffer (Pierce) according to the manufacturer's instructions. Fifty μl of 0.5× serial dilutions of the humanized antibody or parental chimeric antibody, beginning with 2000 ng/ml, was incubated with 50 ng/ml hCSF1R ECD.506-Fc (SEQ ID NO: 6; FivePrime Therapeutics) or 50 ng/ml cynoCSF1R ECD-Fc (FivePrime Therapeutics, SEQ ID NO: 8, but without the 19 amino acid leader sequence) in 100 μl PBST/0.1% BSA for 90 min at RT, after which the admix was transferred to one or more wells of a ligand-coated plate. After 90 min at RT, wells were washed with PBST, and a 1:5000 dilution of an Fc-fragment-specific peroxidase-conjugated goat anti-human IgG (Jackson Immuno Research) in PBST/0.1% BSA was added to each well. After incubation at RT for 60 min, wells were washed with PBST/0.1% BSA, and o-phenylenediamine dihydrochloride peroxidase substrate (Sigma) was added to each well. After incubation at RT for 30 min, A450 values of each well were read directly on a SpectraMaxPlus spectrophotometer with SoftMaxPro software (Molecular Devices).
A general note: In an ELISA, binding on a coated surface is turned into a signal by an enzyme label.

Assay [2] addresses T2, mCSF1R ECD-Fc (mouse).
T2 construct: also called mouse CSF1R ECD
Put plainly: ELISA, plate coated with mCSF1R ECD-Fc, detection anti-human kappa-HRP, A450. On the procedure: (§1) Ninety-six well clear-bottom ELISA plates were coated overnight with 1 μg/ml recombinant hCSF1R ECD.506-Fc (SEQ ID NO: 6; FivePrime Therapeutics) or Human M-CSF R Fc Chimera (R&D Systems) in PBS. The next morning, wells were washed four times with 0.05% Tween20 in PBS (PBST) and blocked with Blocker-Blotto (Pierce). Fifty μl of 0.5× serial dilutions of the humanized antibody or parental chimeric antibody, beginning with 2000 ng/ml, diluted 1:1 in Blocker-Blotto were added to the CSF1R-coated wells. After incubation at room temperature (RT) for 90 min, wells were washed four times with PBST, and a 1:5000 dilution of a peroxidase-conjugated Goat anti-Human kappa Light chain antibody (Sigma) in Blocker-Blotto was added to each well. After incubation at RT for 60 min, wells were washed four times with PBST, and 50 μl o-phenylenediamine dihydrochloride peroxidase substrate (Sigma) was added to each well. After incubation at RT for 30 min, A450 values of each well were read directly on a SpectraMaxPlus spectrophotometer with SoftMaxPro software (Molecular Devices).
The binding curve for each humanized antibody binding to mouse CSF1R ECD was determined as described above for human CSF1R, except the wells of the clear-bottom ELISA plates were coated overnight with 2 μg/ml recombinant mCSF1R ECD-Fc (FivePrime Therapeutics, SEQ ID NO: 93).

In assay [3] the target is T1, cynoCSF1R ECD-Fc. Put plainly: competition ELISA, blocking of human IL34 binding to cynoCSF1R ECD-Fc.
For assay [4], the target named is human CSF1R on CSF1R (SEQ ID NO: 2)-transfected CHO cells (human, UniProt P07333 20-972). Put plainly: cell-based or functional assay.
Assay [5] has as its target T3, hCSF1R ECD.506 (human, UniProt P07333 20-506).
T3 construct: also called human CSF1R ECD
The experiment in a line: SPR Biacore T100, antibody captured on anti-human IgG, hCSF1R ECD.506 as analyte, 1:1 model. On the procedure: The kₐ, kd, and KD for binding to human CSF1R ECD was determined for each of the humanized antibodies as follows.
Binding kinetics of anti-CSF1R humanized antibodies to CSF1R ECD was determined using Biacore T100 Surface Plasmon Resonance (SPR) (GE Healthcare Life Sciences, Piscataway, N.Y.). Each of the humanized anti-CSF1R antibodies was captured on a CM5 sensor chip immobilized with anti-Human IgG antibody using the Human antibody capture kit (GE Healthcare Life Sciences, Piscataway, N.Y.) at 150 RU so that the Rmax value for hCSF1R ECD.506 (SEQ ID NO: 5) binding was 100 RU. Rmax values of less than 150 RU are recommended for accurately determining kinetic values. […] The association constant, dissociation constant, affinity, and binding capacity of each of the Fabs for human CSF1R ECD was calculated using the Biacore T100 Evaluation software package using the 1:1 binding model.
In general terms: Surface plasmon resonance follows binding to a sensor surface in real time, without labels.

The target in assay [6] is T1, cynoCSF1R ECD-Fc. Put plainly: ELISA, plate coated with cynoCSF1R ECD-Fc. On the procedure: as §1
The binding curve for each humanized antibody binding to cynomolgus CSF1R ECD was determined as described above for human CSF1R, except the wells of the clear-bottom ELISA plates were coated overnight with 2 μg/ml recombinant cynoCSF1R ECD-Fc (FivePrime Therapeutics, SEQ ID NO: 8, but without the 19 amino acid leader sequence).

The target of assay [7] is T4, hCSF1R ECD.506-Fc (human).
T4 construct: also called human CSF1R ECD-Fc fusion protein; human CSF1R ECD
Put plainly: ELISA, plate coated with human CSF1R ECD-Fc. On the procedure:
as §1

Numbering of substitutions follows the chain as printed.

B1: h0301-L0H1 (antibody, human IgG4 S228P, kappa)
heavy: not shown
light: EIVLTQSPATLSLSPGERATLSCKASQSVDYDGDNYMNWYQQKPGQAPRLLIYAASNLESGIPARFSGSGSGTDFTLTISSLEPEDFAVYYCHLSNEDLSTFGGGTKVEIKRTVAAPSVFIFPPSDEQLKSGTASVVCLLNNFYPREAKVQWKVDNALQSGNSQESVTEQDSKDSTYSLSSTLTLSKADYEKHKVYACEVTHQGLSSPVTKSFNRGEC
notes: also called Ab2; huAb 0301-L0H1
Broadly, the IC50 is the concentration that gives 50% inhibition. Higher therefore signals a need for much substance. For orientation: Kd means the equilibrium constant for the complex coming apart. A high value points to weaker binding. The term koff denotes the rate constant with which the complex falls apart. As usually defined, the kon is the second-order rate constant of association. Higher therefore signals faster complex formation. Usually EC50 stands for the concentration giving half of the maximal effect. Regarding B1, the IC50 in assay [1] was 0.0274 µg/mL. Also, the binding result in assay [2] is listed as “no binding (tested: 2000 ng/ml)”. For the same molecule, the IC50 in assay [3] stood at 0.0364 µg/mL. Besides, in assay [4], the “IC50, inhibition of CSF1-induced CSF1R phosphorylation (head prints 'Human CSF1/Human CSF1R ECD IC50')” value stood at 0.778 µg/mL and the “IC50, inhibition of IL34-induced CSF1R phosphorylation (head prints 'Human IL34/Human CSF1R ECD IC50')” value turned out to be 0.453 µg/mL. In assay [5], this molecule yielded a Kd of 0.34 nM, a koff of 0.00122 s⁻¹ and a kon of 3.56e+06 M⁻¹ s⁻¹. In assay [6], this molecule gave an EC50 of 0.0144 µg/mL. For the same molecule, the EC50 in assay [7] amounted to 0.0142 µg/mL.

B2: h0301-L0H2 (antibody, human IgG4 S228P, kappa)
heavy: not shown
light: B1 light
notes: also called Ab3; huAb 0301-L0H2
Turning to B2, the IC50 in assay [1] was 0.028 µg/mL. In addition, in assay [2], the binding result is “no binding (tested: 2000 ng/ml)”. The IC50 in assay [3] was determined as 0.0374 µg/mL. Also, in assay [4], the “IC50, inhibition of CSF1-induced CSF1R phosphorylation (head prints 'Human CSF1/Human CSF1R ECD IC50')” value was determined as 1.32 µg/mL and the “IC50, inhibition of IL34-induced CSF1R phosphorylation (head prints 'Human IL34/Human CSF1R ECD IC50')” value turned out to be 0.481 µg/mL. For the same molecule, in assay [5], the Kd turned out to be 0.28 nM, the koff was determined as 0.00066 s⁻¹ and the kon is 2.32e+06 M⁻¹ s⁻¹. Also, the EC50 in assay [6] worked out at 0.0138 µg/mL. In assay [7], this molecule gave an EC50 of 0.0148 µg/mL.

B3: h0301-L1H1 (antibody, human IgG4 S228P, kappa)
heavy: not shown
light: B1 light with E1N
notes: also called Ab5; huAb 0301-L1H1
For B3, the IC50 in assay [1] is 0.0311 µg/mL. Besides, in assay [2], the binding result is recorded as “no binding (tested: 2000 ng/ml)”. In assay [3], this molecule returned an IC50 of 0.0424 µg/mL. For the same molecule, in assay [4], the “IC50, inhibition of CSF1-induced CSF1R phosphorylation (head prints 'Human CSF1/Human CSF1R ECD IC50')” value was 0.814 µg/mL and the “IC50, inhibition of IL34-induced CSF1R phosphorylation (head prints 'Human IL34/Human CSF1R ECD IC50')” value was found to be 0.384 µg/mL. In assay [5], this molecule gave a Kd of 0.32 nM, a koff of 0.000921 s⁻¹ and a kon of 2.87e+06 M⁻¹ s⁻¹. For the same molecule, the EC50 in assay [6] was found to be 0.0167 µg/mL. Further, the EC50 in assay [7] was determined as 0.0165 µg/mL.

B4: h0301-L1H2 (antibody, human IgG4 S228P, kappa)
heavy: not shown
light: B1 light with E1N
notes: also called Ab6; huAb 0301-L1H2
B4 had an IC50 in assay [1] of 0.0278 µg/mL. Moreover, in assay [2], the binding result is reported as “no binding (tested: 2000 ng/ml)”. Moreover, the IC50 in assay [3] is 0.0365 µg/mL. For the same molecule, in assay [4], the “IC50, inhibition of CSF1-induced CSF1R phosphorylation (head prints 'Human CSF1/Human CSF1R ECD IC50')” value was found to be 0.682 µg/mL and the “IC50, inhibition of IL34-induced CSF1R phosphorylation (head prints 'Human IL34/Human CSF1R ECD IC50')” value was found to be 0.397 µg/mL. In assay [5], the Kd worked out at 0.25 nM, the koff was determined as 0.000742 s⁻¹ and the kon was 2.95e+06 M⁻¹ s⁻¹. The molecule also showed an EC50 in assay [6] of 0.0166 µg/mL. In assay [7], this molecule came in with an EC50 of 0.0162 µg/mL.

B5: h0302-L0H2 (antibody, human IgG4 S228P, kappa, V domains shown)
VH: QVQLVQSGAEVKKPGSSVKVSCKASGYTFSDFNIHWVRQAPGQGLEWIGYINPYTDVTVYNEKFKGRATLTSDKSTSTAYMELSSLRSEDTAVYYCASYFDGTFDYALDYWGQGTLVTVSS
VL: EIVLTQSPATLSLSPGERATLSCRASESVDNYGLSFMNWYQQKPGQAPRLLIYTASNLESGIPARFSGSGSGTDFTLTISSLEPEDFAVYYCQQSKELPWTFGQGTKVEIKR
notes: also called Ab10; huAb 0302-L0H2
On to B5, for which the binding result in assay [2] is “no binding (tested: 2000 ng/ml)”. This molecule also displayed an IC50 in assay [3] of 0.248 µg/mL. Moreover, in assay [4], the “IC50, inhibition of CSF1-induced CSF1R phosphorylation (head prints 'Human CSF1/Human CSF1R ECD IC50')” value came to 0.438 µg/mL and the “IC50, inhibition of IL34-induced CSF1R phosphorylation (head prints 'Human IL34/Human CSF1R ECD IC50')” value came out at 0.474 µg/mL. In assay [5], binding was characterised by a dissociation constant (Kd) of 0.53 nM, the koff was determined as 0.00179 s⁻¹ and the kon was found to be 3.4e+06 M⁻¹ s⁻¹. This molecule returned an EC50 in assay [6] of 0.155 µg/mL. The molecule also had an EC50 in assay [7] of 0.0179 µg/mL.
